Data set [1] has as its system sfGFP(Asn39TAG) expressed in BL21 star DE3 cells. The data set can be described thus: ESI-MS analysis of purified sfGFP(Asn39TAG) for amino acid incorporated. The class given is cell-based, E. coli. As to the method: Expression of His-tagged sfGFP was performed using the plasmids, cell strains, and antibiotic concentrations described in the methods for sfGFP assays. Saturated overnight cultures were prepared from single colonies of cotransformed cells, which were diluted 1,000-fold into 300 mL of LB media containing 1 mM ncAA where denoted and were grown while shaking at 230 rpm at 37° C. Once the cultures utilizing a pDB070 plasmid grew to a cell density of A600=0.3, AARS expression was induced by supplementing with anhydrotetracycline (ATc) to a final concentration of 200 ng/mL, and incubation was continued. […] Once cultures grew to a cell density of A600=0.5, sfGFP expression was induced by supplementation with a final concentration of 1 mM isopropyl-β-D-thiogalactosidase (IPTG) for cultures utilizing a pET28b(+) plasmid or a final concentration of 1 mM arabinose for cultures utilizing a pBAD plasmid. Incubation with shaking at 37° C. continued for an additional 16 h after induction of sfGFP expression. Cells were harvested by centrifugation at 5,000 g for 10 min at 4° C., and the resulting pellets were resuspended in B-PER II Bacterial Protein Extraction Reagent (Thermo Fisher Scientific) containing EDTA-free protease inhibitor cocktail (Roche). The soluble fraction of the cell lysates were diluted by an equal volume of equilibration buffer (20 mM Tris (pH 7.4), 10 mM imidazole, 300 mM NaCl) and were separately loaded onto a column containing 2 mL of HisPur Ni-NTA resin (Thermo Fisher Scientific) that had been pre-washed with two bed-volumes of equilibration buffer. […]
Purified protein samples were diluted to 10 μM in dialysis buffer lacking reducing agent or glycerol prior to analysis on an Agilent 6220 ESI-TOF mass spectrometer equipped with an Agilent 1260 HPLC. […] Data was analyzed using Agilent MassHunter Qualitative Analysis software (B.06.00, Build 6.0.633.0 with Bioconfirm). […]

A further data set relates to tRNACUA^Tyr/Opt. The data set can be described thus: Aminoacylation assay of MjTyrRS variants (32P-labeled tRNA, nuclease P1/TLC). The class given is biochemical. The note with it: for Relative catalytic efficiency: relative to p-NFRS with p-NF. As to the method: (§1) The genes of chPylRS variants and MjTyrRS variants were cloned into pET15a and transformed into BL21(DE3) (New England Biolabs) cells for expression. Cells were grown in 500 mL of LB media supplemented with 100 m/mL ampicillin at 37° C. to an A600 of 0.6-0.8, and protein expression was induced by addition of 0.5 mM IPTG (chPylRS variants) or 1 mM IPTG (MjTyrRS variants). Cells were incubated at 30° C. for an additional 6 h (chPylRS variants) or 4 h (MjTyrRS variants) and harvested by centrifugation at 5,000 g for 10 min at 4° C. The cell pellet was resuspended in 15 mL of lysis buffer (50 mM Tris (pH 7.5), 300 mM NaCl, 20 mM imidazole), and cells were lysed by sonication. The crude extract was centrifuged at 20,000 g for 30 min at 4° C. The soluble fraction was loaded onto a column containing 2 mL of Ni-NTA resin (Qiagen) previously equilibrated with 20 mL of lysis buffer. The column was washed with 20 mL of lysis buffer. The bound protein was then eluted with 2 mL of 50 mM Tris (pH 7.5), 300 mM NaCl, 300 mM imidazole. The purified protein was dialyzed with 50 mM HEPES-KOH (pH 7.5), 50 mM KCl, 1 mM DTT and 50% glycerol and stored at −80° C. for further studies.
(§2) Template plasmid containing the tRNA^Pyl or tRNACUA^Tyr/Opt gene was purified with the plasmid maxi kit (Qiagen). The plasmid containing tRNA^Pyl (100 μg) was digested with BstNI (New England Biolabs). The tRNACUA^Tyr/Opt gene was amplified by PCR. The BstNI digested template DNA or PCR product was purified by phenol chloroform extraction, followed by ethanol precipitation and dissolved in double distilled water. A His-tagged T7 RNA polymerase was purified over a column of Ni-NTA resin according to manufacturer's instructions (Qiagen). The transcription reaction (40 mM Tris (pH 8); 4 mM each of UTP, CTP, GTP, and ATP at pH 7.0; 22 mM MgCl2; 2 mM spermidine; 10 mM DTT; 6 μg pyrophosphatase (Roche Applied Science); 60 m/mL of DNA template, approximately 0.2 mg/mL T7 RNA polymerase) was performed in 10 mL reactions overnight at 37° C. The tRNA was purified on 12% denaturing polyacrylamide gel containing 8 M urea and TBE buffer (90 mM Tris, 90 mM boric acid, 2 mM EDTA). UV shadowing was used to illuminate the pure tRNA band, which was excised and extracted three times with 1M sodium acetate pH 5.3 at 4° C. The tRNA extractions were then ethanol precipitated, dissolved in RNase-free distilled water, pooled, and finally desalted using a Biospin 30 column (BioRad). The tRNA was refolded by heating to 100° C. for 5 min and slow cooling to room temperature. At 65° C., MgCl2 was added to a final concentration of 10 mM to aid folding. A His-tagged CCA adding enzyme was purified over column of Ni-NTA resin according to manufacturer's instructions (Qiagen). 16 μM refolded tRNA in 50 mM Tris (pH 8.0), 20 mM MgCl2, 5 mM DTT, and 50 μM NaPPi was incubated at room temperature for 1 h with approximately 0.2 mg/mL CCA-adding enzyme and 1.6 μCi/μL of (α-^32P)-labeled ATP (PerkinElmer). The sample was phenol/chloroform extracted and then passed over a Bio-spin 30 column (Bio-Rad) to remove excess ATP.
(§3) A 20 μL aminoacylation reaction contained the following components for chPylRS variants: 50 mM HEPES-KOH (pH 7.2), 25 mM KCl, 10 mM MgCl2, 5 mM DTT, 10 mM ATP, 25 μg/mL pyrophosphatase (Roche Applied Science), 10 mM amino acids, 500 nM PylRS variants, 5 μM unlabeled tRNA^Pyl, and 100 nM ^32P-labeled tRNA^Pyl. A 20 μL aminoacylation reaction contained the following components for MjTyrRS variants: 50 mM Tris-HCl (pH 7.5), 1 mM DTT, 10 mM MgCl2, 10 mM ATP, 20 μM unlabeled tRNACUA^Tyr/Opt, 3 μM ^32P-labeled tRNACUA^Tyr/Opt, 2 μM MjTyrRS variants. […]

The test system of the next data set is tRNA^Pyl. The data set can be described thus: Aminoacylation assay of chPylRS variants (32P-labeled tRNA, nuclease P1/TLC). The class given is biochemical. As to the method: as §1, §2, §3

This is an account of results in patent publication US11447809B2, “Evolution of tRNA synthetases” (President and Fellows of Harvard College, priority 2017, dated 2022).

Read-outs that look alike come from different tables or passages of the source.

B1: p-NFRS: previously evolved MjTyrRS variant charging p-nitro-L-phenylalanine; SEQ ID NO: 18, 22 (protein)
chain: MDEFEMIKRNTSEIISEEELREVLKKDEKSALIGFEPSGKIHLGHYLQIKKMIDLQNAGFDIIILLADLHAYLNQKGELDEIRKIGDYNKKVFEAMGLKAKYVYGSSFQLDKDYTLNVYRLALKTTLKRARRSMELIAREDENPKVAEVIYPIMQVNPLNYEGVDVAVGGMEQRKIHMLARELLPKKVVCIHNPVLTGLDGEGKMSSSKGNFIAVDDSPEEIRAKIKKAYCPAGVVEGNPIMEIAKYFLEYPLTIKRPEKFGGDLTVNSYEELESLFKNKELHPMRLKNAVAEELIKILEPIRKRL
One may read the Km as the substrate concentration at which the rate is half of its maximum. For B1, in data set [1] (LB media, 1 mM p-IF), the “charging of p-IF” value is given as “efficiently charges p-iodo-L-phenylalanine (p-IF)”. Further, the “charging of Phe” value in data set [1] (overnight expression in LB media, presence or absence of 1 mM p-NF) is “efficiently charges Phe”. Also, the kcat in the data set with tRNACUA^Tyr/Opt (amino acid Phe) is on record as 0.14 ± 0.003 s^−1 × 10^−3; in the data set on tRNACUA^Tyr/Opt (ncAA p-IF), 0.87 ± 0.11 s^−1 × 10^−3; with tRNACUA^Tyr/Opt (ncAA p-NF), 1.40 ± 0.05 s^−1 × 10^−3. Further, the Km was 160 ± 30 µM with tRNACUA^Tyr/Opt (amino acid Phe, read-out: KM^ncAA); 2230 ± 460 µM with tRNACUA^Tyr/Opt (ncAA p-IF); 3680 ± 290 µM in the data set with tRNACUA^Tyr/Opt (ncAA p-NF). Further, the Relative catalytic efficiency in the data set on tRNACUA^Tyr/Opt (amino acid Phe) is listed as 2.3; in the data set on tRNACUA^Tyr/Opt (ncAA p-IF), 1.03; in the data set with tRNACUA^Tyr/Opt (ncAA p-NF), 1.00.

B2: p-IFRS: previously reported MjTyrRS variant evolved to charge p-IF; His160; SEQ ID NO: 19, 23 (protein)
chain: MDEFEMIKRNTSEIISEEELREVLKKDEKSALIGFEPSGKIHLGHYLQIKKMIDLQNAGFDIIILLADLHAYLNQKGELDEIRKIGDYNKKVFEAMGLKAKYVYGSSFQLDKDYTLNVYRLALKTTLKRARRSMELIAREDENPKVAEVIYPIMQVNPLHYEGVDVAVGGMEQRKIHMLARELLPKKVVCIHNPVLTGLDGEGKMSSSKGNFIAVDDSPEEIRAKIKKAYCPAGVVEGNPIMEIAKYFLEYPLTIKRPEKFGGDLTVNSYEELESLFKNKELHPMRLKNAVAEELIKILEPIRKRL
As for B2, in data set [1] (LB media supplemented with both 1 mM p-NF and 1 mM p-IF), the “selectivity of incorporation into sfGFP” value is recorded as “selectively incorporates p-IF”.

B3: chPylRS: chimera of residues 1-149 of MbPylRS and residues 185-454 of MmPylRS; progenitor enzyme (SEQ ID NO: 5) (protein)
chain: MDKKPLDVLISATGLWMSRTGTLHKIKHYEVSRSKIYIEMACGDHLVVNNSRSCRTARAFRHHKYRKTCKRCRVSDEDINNFLTRSTEGKTSVKVKVVSAPKVKKAMPKSVSRAPKPLENPVSAKASTDTSRSVPSPAKSTPNSPVPTSASAPALTKSQTDRLEVLLNPKDEISLNSGKPFRELESELLSRRKKDLQQIYAEERENYLGKLEREITRFFVDRGFLEIKSPILIPLEYIERMGIDNDTELSKQIFRVDKNFCLRPMLAPNLYNYLRKLDRALPDPIKIFEIGPCYRKESDGKEHLEEFTMLNFCQMGSGCTRENLESIITDFLNHLGIDFKIVGDSCMVYGDTLDVMHGDLELSSAVVGPIPLDREWGIDKPWIGAGFGLERLLKVKHDFKNIKRAARSESYYNGISTNL
On to B3, for which the kcat in the data set on tRNA^Pyl (BocK substrate, Table 7) turned out to be 11.88 ± 0.18 s^−1 × 10^−3; with tRNA^Pyl (L-pyrrolysine substrate, Table 8), 33.24 ± 2.74 s^−1 × 10^−3. The Km was found to be 2.54 ± 0.16 µM with tRNA^Pyl (BocK substrate, Table 7, read-out: KM^ATP); 0.26 ± 0.07 µM with tRNA^Pyl (BocK substrate, Table 7, read-out: KM^tRNA); 21.03 ± 0.15 µM with tRNA^Pyl (L-pyrrolysine substrate, Table 8, read-out: KM^Pyl); 1030 ± 50 µM in the data set with tRNA^Pyl (Table 7, read-out: KM^bocK). In the data set on tRNA^Pyl (kcat/KM^tRNA relative to chPylRS), this molecule yielded a Relative catalytic efficiency of 1.
